Measured values: patent publication US20140038895A1 (UNIVERSITY OF QUEENSLAND, published 2014)
Where no end group is shown, it is not given here.

Legend:
human RXFP3 [1] = molecular target: T1, human RXFP3 (human, UniProt Q9NSD7 1-469); experiment: competition binding vs Eu-DTPA-R3/I5 on HEK-293T cells stably expressing human RXFP3, time-resolved fluorescence, n = 3
T1 construct: whole, on cells; also called GPCR135; RXFP3 receptor
T1 sequence (looked up): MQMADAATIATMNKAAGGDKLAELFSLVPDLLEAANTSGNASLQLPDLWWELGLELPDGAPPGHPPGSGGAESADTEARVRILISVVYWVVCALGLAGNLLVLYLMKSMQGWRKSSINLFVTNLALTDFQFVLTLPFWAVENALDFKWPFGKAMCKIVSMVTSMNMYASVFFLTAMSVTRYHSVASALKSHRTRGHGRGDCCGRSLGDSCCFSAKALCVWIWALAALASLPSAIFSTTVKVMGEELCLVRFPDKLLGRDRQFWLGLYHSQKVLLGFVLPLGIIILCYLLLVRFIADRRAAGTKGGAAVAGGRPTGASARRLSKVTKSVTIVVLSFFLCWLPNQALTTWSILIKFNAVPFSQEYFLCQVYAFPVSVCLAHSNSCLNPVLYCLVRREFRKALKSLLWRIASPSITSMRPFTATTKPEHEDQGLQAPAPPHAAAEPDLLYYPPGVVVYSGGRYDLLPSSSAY

human RXFP1 = molecular target: T2, human RXFP1 (human, UniProt Q9HBX9 1-757); experiment: competition binding vs Eu-DTPA-H2 relaxin on HEK-293T cells transfected with RXFP1 (FIG. 7)
T2 construct: whole, on cells; also called LGR7; RXFP1 receptor
T2 sequence (looked up): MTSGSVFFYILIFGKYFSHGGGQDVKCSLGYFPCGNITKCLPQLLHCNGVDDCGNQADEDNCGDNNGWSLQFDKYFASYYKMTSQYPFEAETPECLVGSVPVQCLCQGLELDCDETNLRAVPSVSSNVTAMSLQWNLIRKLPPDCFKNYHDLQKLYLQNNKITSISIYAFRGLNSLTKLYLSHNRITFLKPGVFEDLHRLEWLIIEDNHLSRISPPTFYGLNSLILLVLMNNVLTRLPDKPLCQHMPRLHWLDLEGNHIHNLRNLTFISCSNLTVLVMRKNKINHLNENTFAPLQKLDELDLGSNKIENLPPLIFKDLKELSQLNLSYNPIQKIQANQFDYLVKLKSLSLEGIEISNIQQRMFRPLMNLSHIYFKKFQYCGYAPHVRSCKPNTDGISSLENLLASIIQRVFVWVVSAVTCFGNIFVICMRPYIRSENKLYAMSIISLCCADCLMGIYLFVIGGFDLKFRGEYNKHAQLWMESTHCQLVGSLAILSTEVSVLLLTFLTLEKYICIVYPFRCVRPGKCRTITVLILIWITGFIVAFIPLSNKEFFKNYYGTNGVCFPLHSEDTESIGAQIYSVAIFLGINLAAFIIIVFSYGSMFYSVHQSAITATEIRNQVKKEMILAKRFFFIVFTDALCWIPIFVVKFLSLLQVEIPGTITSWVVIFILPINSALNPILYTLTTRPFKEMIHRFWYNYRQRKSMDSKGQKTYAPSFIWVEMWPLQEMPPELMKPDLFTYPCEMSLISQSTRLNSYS

human RXFP3 [2] = molecular target: T1, human RXFP3; experiment: competition binding vs Eu-DTPA-R3/I5 on HEK-293T cells expressing human RXFP3 (Table 2 cell: 'No activity')

Work on GVRLSGREFIRAVIFTSR-NH2 (Synthetic single chain peptide) [H3 B6-22R] yielded a pIC50 (human RXFP3 [1]) of 6.33.

B1: H3 B-chain C10/22S (peptide)
peptide: RAAPYGVRLSGREFIRAVIFTSGGSRW-OH
notes: Synthetic single chain peptide; also called H3 relaxin B chain; native H3 B chain
B1 was tested, and the pIC50 (human RXFP3 [1]) was 5.6.

B2: H3 B1-22R (peptide)
peptide: RAAPYGVRLSGREFIRAVIFTSR-NH2
notes: Synthetic single chain peptide; also called R3 B1-22R; R3 1-22R
With B2 the binding result (human RXFP1) was “binds” and the pIC50 (human RXFP3 [1]) was 7.75.

For RAAPYGVRLAGREFIRAVIFTAR-NH2 (Synthetic single chain peptide) [H3 B1-22R C10/22A], the pIC50 (human RXFP3 [1]) was 6.83.

Binder RAAPYGVRLSGREFIRAVIFTSR-OH (Synthetic single chain peptide) [H3 B1-22R Acid] has a pIC50 (human RXFP3 [1]) of 6.46.

AAPYGVRLSGREFIRAVIFTSR-NH2 (Synthetic single chain peptide) [H3 B2-22R] gave a pIC50 (human RXFP3 [1]) of 7.06.

APYGVRLSGREFIRAVIFTSR-NH2 (Synthetic single chain peptide) [H3 B3-22R] showed a pIC50 (human RXFP3 [1]) of 6.71.

For PYGVRLSGREFIRAVIFTSR-NH2 (Synthetic single chain peptide) [H3 B4-22R], the pIC50 (human RXFP3 [1]) was 6.66.

For YGVRLSGREFIRAVIFTSR-NH2 (Synthetic single chain peptide) [H3 B5-22R], the pIC50 (human RXFP3 [1]) was 6.37.

RAAPYGVRLSGREFIRAVIFTS-NH2 (Synthetic single chain peptide) [H3 B1-22]: no binding (human RXFP3 [2]).

VRLSGREFIRAVIFTSR-NH2 (Synthetic single chain peptide) [H3 B7-22R]: no binding (human RXFP3 [2]).
